Results: paper PMC10192527, “A metal ion-dependent mechanism of RAD51 nucleoprotein filament disassembly”

B1: x60 ssDNA 60mer (ssDNA)
DNA: ATGGTGTGTGTAGGTTAATGTGAGGAGGAGAGGTGAAGAAGGAGGAGAGAAGAAGGAGGC
B2: R51-14:R51-15 (post-synaptic filament DNA) (dsDNA)
DNA 1: TGGAGGTGCATCGAGCTCGCGACAAACCTTCTATGTTGAGCGTCAGTCGG
DNA 2: CCGACTGACGCTCAACATAGGTACCACACGGCGAGCTCGATGCACCTCCA

How the values were obtained:
RAD51 [1] = target: T1, RAD51 (Homo sapiens, UniProt Q06609 1-339); assay: cryo-EM structure (3.8 A); Ca2+, ATP (pre-synaptic filament; two Ca2+ per ATP site); EMSA: 25 mM HEPES pH 7.5, 150 mM NaCl, 2 mM DTT, 5 mM CaCl2, 2 mM ATP or 0.5-10 mM ADP, 25 C 15 min; 0.5% agarose in 0.5x TB at 4 C; settings: protein: recombinant; tags: none stated on the final protein; co-expressed with His6-MBP-BRCA2 BRC4 (pMBP4-RAD51); chain copies: 10; single strand
T1 sequence (Q06609 whole entry): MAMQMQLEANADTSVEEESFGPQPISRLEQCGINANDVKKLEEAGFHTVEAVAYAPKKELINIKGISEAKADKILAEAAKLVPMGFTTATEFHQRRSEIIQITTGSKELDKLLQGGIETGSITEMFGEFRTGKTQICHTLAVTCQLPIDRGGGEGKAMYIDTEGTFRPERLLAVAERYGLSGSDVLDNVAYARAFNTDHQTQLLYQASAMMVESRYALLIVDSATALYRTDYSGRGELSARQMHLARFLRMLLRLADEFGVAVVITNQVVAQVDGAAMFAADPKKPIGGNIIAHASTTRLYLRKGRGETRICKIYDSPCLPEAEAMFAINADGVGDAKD

RAD51 [2] = target: T1, RAD51; assay: cryo-EM structure; ATP, Ca2+ (post-synaptic filament; second metal ion present); EMSA: 25 mM HEPES pH 7.5, 150 mM NaCl, 2 mM DTT, 5 mM CaCl2, 2 mM ATP or 0.5-10 mM ADP, 25 C 15 min; 0.5% agarose in 0.5x TB at 4 C; settings: protein: recombinant; tags: none stated on the final protein; co-expressed with His6-MBP-BRCA2 BRC4 (pMBP4-RAD51); chain copies: 16; blunt ends, internal 10-nt mismatched bubble

Binder | binding result (RAD51 [1]) | binding result (RAD51 [2])
B1 | binds | –
B2 | – | binds
